Measurements as given in patent publication US20240093191A1, “COMPOSITIONS AND METHODS FOR TREATING DISEASE ASSOCIATED WITH DUX4 OVEREXPRESSION” (RESEARCH INSTITUTE AT NATIONWIDE CHILDREN'S HOSPITAL, priority 2021, published 2024).

B1: H1.mir-675: commercially available H1 promoter mir-675 expression plasmid (SBI Biosciences) (nucleic acid)
DNA: GAACGCTGACGTCATCAACCCGCTCCAAGGAATCGCGGGCCCAGTGTCACTAGGCGGGAACACCCAGCGCGCGTGCGCCCTGGCAGGAAGATGGCTGTGAGGGACAGGGGAGTGGCGCCCTGCAATATTTGCATGTCGCTATGTGTTCTGGGAAATCACCATAAACGTGAAATGTCTTTGGATTTGGGAATCTTATAAGTTCTGTATGAGACCACCCCCCAGGGTCTGGTGCGGAGAGGGCCCACAGTGGACTTGGTGACGCTGTATGCCCTCACCGCTCAGCCCCTGGGGAATTCTTCGATTCTGCTTTTTT
B2: U6.mir-675: U6 promoter-driven mir-675 expression plasmid with 40 nt 5' and 47 nt 3' flanking sequences (nucleic acid)
DNA: GACGCCGCCATCTCTAGGCCCGCGCCGGCCCCCTCGCACAGACTTGTGGGAGAAGCTCGGCTACTCCCCTGCCCCGGTTAATTTGCATATAATATTTCCTAGTAACTATAGAGGCTTAATGTGCGATAAAAGACAGATAATCTGTTCTTTTTAATACTAGCTACATTTTACATGATAGGCTTGGATTTCTATAAGAGATACAAATACTAAATTATTATTTTAAAAAACAGCACAAAAGGAAACTCACCCTAACTGTAAAGTAATTGTGTGTTTTGAGACTATAAATATCCCTTGGAGAAAAGCCTTGTTTGCGTTTAGTGAACCGTCAGATGGTACCGTTTAAACTCGAGCCCAGGGTCTGGTGCGGAGAGGGCCCACAGTGGACTTGGTGACGCTGTATGCCCTCACCGCTCAGCCCCTGGGACTAGAGCGGCCGCCACAGCGGGGAGATCCAGACATGATAAGATACATTTTTT

What was measured:
mir-675-5p = experiment: TaqMan QRT-PCR of mature mir-675-5p from transfected constructs in HEK293 cells; format: cell-based, human
Text: RNA Extraction. RNA from HEK293 cells was extracted for Northern blot assay and QPCR. The miRVANA miRNA isolation kit (ThermoFisher Scientific) was used according to manufacturer's directions to extract total RNA encompassing small RNAs, such as miRNAs. To extract RNA from C57BL/6 skeletal muscles, cryopreserved muscles were crushed under suboptimal temperatures using liquid nitrogen and using mortar and pestle. Crushed muscles were then lysed using […] of miRVANA miRNA isolation kit lysis buffer, a TissueLyser and 1.0 mm zirconia beads (Biospec). Muscle was homogenized at 30 Hz for 30 sec with 10 sec rest. This was repeated 3 times.
TaqMan Gene Expression Assay. QRT-PCR was carried out to quantify the expression of pri-mir-675, mir-675-5p and mi405 using TaqMan probes (ThermoFisher Scientific). Experiments were started by eliminating genomic DNA from the RNA preparations, and then cDNA was generated using the High-Capacity cDNA Reverse Transcription Kit (Applied Biosystems) following manufacturer's instructions. Within the same cDNA reaction, 1×RT random hexamer primers were used to generate the cDNA for RPL13A, used as a reference gene, and for pri-mir-675. To generate the cDNA for mir-675, the RT mir-675 reverse primer provided by ThermoFisher Scientific was used. For mi405, the mi405 qPCR protocol was done as it was previously described [Wallace et al., Mol. Ther. Methods Clin. Dev. 8: 121-30 (2018)]. To quantify mir-675 and mi405 levels, RNA was extracted using the total RNA protocol for the mirVana miRNA Isolation Kit (Ambion) from HEK293 cells. cDNA was generated using the High-Capacity cDNA Reverse Transcription Kit (Applied Biosystems) using a mix of random hexamer primers and specific reverse primer for pri-mir-675 and mir-675-5p. For mi405, 200 nM of the stem-loop forming primer (5′-[…]-3′) (SEQ ID NO: 144) was also used for the RT step. A custom TaqMan assay (Applied Biosystems) including 1.5 μM of Forward primer (5′-[…]-3′) (SEQ ID NO: 145), 0.7 μM of Reverse primer (5′-GTGCAGGGTCCGAGGT-3′) (SEQ ID NO: 146), and 0.2 μM of mi405 probe (5′-6FAM-ATACGACGTCCAGGAT-3′) (SEQ ID NO: 147) was then run using the CFX Connect Real Time system apparatus (Bio-Rad). RPL13A (Mm02526700_g1; Applied Biosystems) served as the reference gene. The TaqMan gene expression assay consisted of using the TaqMan Gene Expression Master mix and TaqMan probes purchased from ThermoFisher Scientific. 1× of probe was mixed with 1× of the TaqMan Gene Expression Master mix (ThermoFisher Scientific), and with 20 ng of cDNA. The mir-675- and mi405-specific primers and probes were designed to quantify only the mir-675-5p and mi405 mature sequence (see TaqMan Gene Expression Master mix protocol).

[1] = test system: mir-675R (reverse complementary sequence of mir-675-5p); experiment: Dual-luciferase assay with mir-675 perfect target site (mir-675R) as Renilla 3'UTR; format: cell-based, human; conditions: mir-675R perfect target site; normalized to milacZ
Text: The QPCR was done using the Taqman probes designed to recognize the mature sequence of mir-675-5p and -3p. mir-675-3p expression was 2.20±0.15-fold higher than that of mir-675-5p (P<0.0001, ANOVA, N=3). Gene expression was normalized to the housekeeping gene RPL13A. Results were reported as the average relative gene expression±SEM of three replicates (N=3). […] The miRNA (pmoles) was used at 40-fold of the RenLuc-DUX4-FL (pmoles). When testing the U6.mir-675-3p construct, the relative Renilla luciferase kept on average 95% (P<0.2, ANOVA) of its activity, even though U6.mir-675-3p expressed high levels of mir-675-3p relative to the negative control mir-675-5p levels. On the other hand, U6.mir-675-5p was able to reduce the relative Renilla luciferase activity on average by 33±3% (P<0.0001, ANOVA, N=3). All readings were normalized to the milacZ negative control. Results were reported as the average relative Renilla luciferase activity±SEM of three replicates (N=3). […] This sequence was cloned as a 3′UTR downstream the Renilla luciferase gene. […] All readings were normalized to the milacZ negative control. […]
Dual Luciferase Assay. […] Luciferase activity was measured 24h or 48h after transfection. DUX4 gene silencing was determined as previously described [Wallace et al., Mol. Ther. Methods Clin. Dev. […]

Row | Molecule | mir-675-5p levels compared to U6.mir-675 (mir-675-5p; 23 mer mature mir-675-5p, HEK293, 24 h post-transfection) [%] | mir-675-5p overexpressed levels compared to milacZ sample (mir-675-5p; HEK293 co-transfected with CMV.DUX4-FL/CMV.eGFP) [fold] | reduction of relative Renilla luciferase activity (maximum inhibition) [1] [%]
1 | B1 | 232±35 | ~2000 | 
2 | B2 |  |  | 41±12
